Source: article PMC11834443, “Allosteric regulation of pyruvate kinase enables efficient and robust gluconeogenesis by preventing metabolic conflicts and carbon overflow” (mSystems, 2025)

Tests used:
[1] = biological target: T1, wild-type full length pyruvate kinase (WT Pyk) (Bacillus subtilis, UniProt P80885); type: biochemical
[2] = biological target: T1, wild-type full length pyruvate kinase (WT Pyk); experiment: LDH-coupled assay, NADH absorbance at […] nm; type: biochemical
[3] = biological target: T1, wild-type full length pyruvate kinase (WT Pyk); experiment: LDH-coupled assay, fit to nonessential activation equation; type: biochemical
purified protein = substrate: Nc1ncnc2c1ncn2[C@@H]1O[C@H](COP(=O)(O)OP(=O)(O)O)[C@@H](O)[C@H]1O; experiment: purified protein; settings: pH 7.5
[4] = biological target: the molecule itself; experiment: SEC; 100 µL of 100 µM protein on Superdex200 26/60; 20 mM Tris-Cl pH 7.5, 300 mM NaCl, 1 mM EDTA, 1 mM DTT, 10% glycerol; 3 mL/min, 4°C; mass from a standard curve of partition coefficients

Molecule | Km (purified protein) | stoichiometry N [4] | also measured
Nc1ncnc2c1ncn2[C@@H]1O[C@H](COP(=O)(O)O)[C@@H](O)[C@H]1O [AMP] | – | – | LDH-coupled assay, NADH absorbance at 340 nm [1]: wild-type B. subtilis pyruvate kinase was activated by AMP or R5P (Fig. S3a)
Nc1ncnc2c1ncn2[C@@H]1O[C@H](COP(=O)(O)OP(=O)(O)OP(=O)(O)O)[C@@H](O)[C@H]1O [ATP] | – | – | Ki [2]: 520 ± 50 µM
O=P(O)(O)OC[C@H]1OC(O)[C@H](O)[C@@H]1O (stereo partly shown) [R5P] | – | – | Kd [3]: 570 ± 40 µM
Bacillus subtilis pyruvate kinase, wild-type full length (enzyme, B. subtilis, UniProt P80885 1-585, looked up, This looks larger than the untagged protein, although the methods say the His tag was removed with TEV protease; also called WT Pyk; WT; source: E. coli BL21 (DE3), purified (HisTrap FF, TEV digestion, size-exclusion chromatography); not shown: His6, N-terminal, cleaved) MRKTKIVCTIGPASESIEMLTKLMESGMNVARLNFSHGDFEEHGARIKNIREASKKLGKNVGILLDTKGPEIRTHTMENGGIELETGKELIISMDEVVGTTDKISVTYEGLVHDVEQGSTILLDDGLIGLEVLDVDAAKREIKTKVLNNGTLKNKKGVNVPGVSVNLPGITEKDARDIVFGIEQGVDFIAPSFIRRSTDVLEIRELLEEHNAQDIQIIPKIENQEGVDNIDAILEVSDGLMVARGDLGVEIPAEEVPLVQKELIKKCNALGKPVITATQMLDSMQRNPRPTRAEASDVANAIFDGTDAIMLSGETAAGSYPVEAVQTMHNIASRSEEALNYKEILSKRRDQVGMTITDAIGQSVAHTAINLNAAAIVTPTESGHTARMIAKYRPQAPIVAVTVNDSISRKLALVSGVFAESGQNASSTDEMLEDAVQKSLNSGIVKHGDLIVITAGTVGESGTTNLMKVHTVGDIIAKGQGIGRKSAYGPVVVAQNAKEAEQKMTDGAVLVTKSTDRDMIASLEKASALITEEGGLTSHAAVVGLSLGIPVIVGLENATSILTDGQDITVDASRGAVYQGRASVL | 1010 ± 30 µM | 4 | –
Bacillus subtilis pyruvate kinase lacking the extra C-terminal domain (residues 1-474) (domain or fragment, B. subtilis, UniProt P80885 1-474, looked up, pyruvate kinase (Pyk) of Bacillus subtilis, N-terminal residues 1-474, without the extra C-terminal domain (ECTD); in pLIC-trPC-HA (plasmid pJW724); This looks larger than untagged residues 1-474, although the methods say the His tag was removed with TEV protease; also called PykΔECTD; ΔECTD pyruvate kinase; source: E. coli BL21 (DE3), purified (HisTrap FF, TEV digestion, size-exclusion …)) MRKTKIVCTIGPASESIEMLTKLMESGMNVARLNFSHGDFEEHGARIKNIREASKKLGKNVGILLDTKGPEIRTHTMENGGIELETGKELIISMDEVVGTTDKISVTYEGLVHDVEQGSTILLDDGLIGLEVLDVDAAKREIKTKVLNNGTLKNKKGVNVPGVSVNLPGITEKDARDIVFGIEQGVDFIAPSFIRRSTDVLEIRELLEEHNAQDIQIIPKIENQEGVDNIDAILEVSDGLMVARGDLGVEIPAEEVPLVQKELIKKCNALGKPVITATQMLDSMQRNPRPTRAEASDVANAIFDGTDAIMLSGETAAGSYPVEAVQTMHNIASRSEEALNYKEILSKRRDQVGMTITDAIGQSVAHTAINLNAAAIVTPTESGHTARMIAKYRPQAPIVAVTVNDSISRKLALVSGVFAESGQNASSTDEMLEDAVQKSLNSGIVKHGDLIVITAGTVGESGTTNLMKVHTVGD | 1830 ± 240 µM | 4 | –
